The DeepSol protein solubility set

Assay: soluble on expression in E. coli; label from the status in PepcDB or PDB records

Soluble on expression in E. coli, not soluble:
MGSDKIHHHHHHLLASGLEYSHHMSPDAMVEDITRLVEIWVTGWAGCRGYETRTEGRFPAALRADTTKEWEYFAHDPSDTEFAELAAKTAEAPARILTILTNDVARYTYLAQQHGLNVTSASQTMMIVDMETRDSEDPWLSDDDLKLTTFKKDGVHHAVVNAGESVAASGRVFVVGHTAVFDKIVTEPAYQRRGLGSFIMKALAAQAFEHDVENGLLLASLDGQKLYSHLGWTTLCHVLMLSSSNEGADLSVG
FPDPSFIIDAEGRFLDCLTDPETMLTVDDTDTLVGQTLHEFFPHDTADSLLAAVRAALRTGSFQSVEYKLQVPSDKRWFEARVAPLESRAYDPDTVIFVARDI
MFFVSLLFEFFDSIFEIAVMLGFEMLCRMAADSSVLHCLVAAYMGLGKLPATTEKHTYAQQDKSQSDQQKRSQKNCSHLLLYLRNTKVRFSYPQRSTINNS
MAGDPMANITLSTQHYRIHRSDVEPVKEKTTDKDVFAKSITAVRNSFISLSTSLSDRFSLHLQTDIPTTHFHRGSASEGRAVLTSKTVKDFMLQKLNSLDIKGNASKDPAYARQTCEAMLSAVYSNNKDHCCKLLISKGVSITPFLKEIGEAAQNAGLPGEIKNGVFTPGGAGANPFVVPLIAAASIKYPHMFINHNQQVSFKAYAEKIVMKEVTPLFNKGTMPTPQQFQLTIENIANKYLQNASLEHHHHHH
MGSDKIHHHHHHMEFPGVKALDDVHFSVKRGEIHALVGANGAGKSTLMKVLAGAYASYEGTILFDGVPLAIDSPNAAKRAGIEIVYQEVDTALVDYLTVAENICLDMLASGQLKGVIRRRRYEEIAERALQKLKASIDVRQRVSELRLAEKQLVLIARALVQESRFLILDEPTAPLSGRETEQLFRIIRELAEKEHLGVIFISHRLQELFEICESISVMRDGKMVSRQLLAGQTKETVVEQMLGRRLQKSSREARPAGAPSLELDRITVAGQLDEISLTVRAGEVIGIAGLVGAGKTELCKTIFGSIPVTSGLMRLAGETRRIRSAYDAVRLGIGLVPEERRKEGILVADPIEQNMTAASLKQFVNRFGFVEKKKERAAANRIVQQLSIKVSDTRQRAAELSGGNQQKVAIGKWLLADASVLVLDEPTKGVDVGAKAEIFQVIDQLAAEQKAVIYASSELDELLAVTDRIYVMYDGQIVFEATTSETTEEQLLWYATGGQQHE
MVTFREMDISDYNEVIALWATTENVSLRDADSRPNIEAYLKRNQGLSFVAVSDSLVIGAVLVGTDGRRGYVQHLAVSSDFRGQGIGKSLIQKATDALSRIGISKTHLFVLIENVVAQDFYTKLDWYPRDEIRMFSYNSSSNPEV
MGSDKIHHHHHHMISYGELIRQIRQSKKISQKEVYTGVISKSYAIEFEKGTHAISSLLLEKIVAKLMVSMEEFFLMYHQEALPEKEDFWEAYARTCKTDEASAWESLYQKISLEKGKVNQVKSAAIKLELDHIKGKQVADKKAVQILENYLIEAVFWTLQDIFLFTRMMHYLPLKSRVPFYYKLLNTLDRYRHFERGRSISQSALASIMDDFIEKNEIEYMELMIKSLEKISEDCDGTYSKILCMYYRGIVRWREGEKREGSEEIEQAVAILRALGYENKAAEYETMYRQFARENNDIKTME
GPGSMLRRTDRCGQRKVEKLLVANRGEIACRVFRTCREMHIRTVALFCEAERNAKHVVEADEAVCIGPPPAVNSYLRGDHIISVAKQLNVDAIHPGYGFLSENADFAEAVTRSGIEFIGPPASAISLMGSKSESKRIMEAAGVPVVPGYYGENQNVSFLAEEANRVGFPILIKAVSGGGGKGMKIVERPEDFAFMLESAKREAANFFKDDRVILERYVKRPRHIECQIFFDKHGRGVFFFERDCSVQRRYQKVLEEAPAPHLSMEMRQRIGEVALQAAKAVGYVGAGTVEFIFDTSTGDFYFMEMNTRLQVEHPVTEEVCRIKGAPLDLVKLQIKTAMGKPLTFSQEDVALVGSCIEARVYAESPERGFLPESGPLTFIREPFQGVRGPTRTRLDTGFCEGDNVLIHYDPMLAKVISWGRNREDALKGLRQALGEYKVAGINTNIEFLKRCCEAPEFARGGVTTNFISEHEKQLLNAPAVTPKVAAMAATAWLLNRCDNWRGAFRLNGDTSATVHFYIDNRPVEVRLHTEGANYHKIFFSVWDHEGSFAVGSGPVTSKHRDQRSIVNGFTFLFENGMRHTVLAVATEGDVTIIGSFGLHQIRLLPLTDGFGDASMAGGTSAKIVSPMPGKVSKFLVNSGDFVEKGQALMIVEAMKMEHPVKALQDGQVSFLVKEGEVVGSDHVLATVVQKE
MKRRKQSRRWRGKKYAPVMIGMLVLLMNLADLKISNLISGSIICQAAERQSENTETENNSGGTEKEKITQTEASTVSDILEELDLSRVQRMLDQMLGEESFSMKDMLDGLIKGEKVLSEDTVQEMVHSFLFSGLEKEKS
MAHAPARCPSARGSGDGEMGKPRNVALITGITGQDGSYLAEFLLEKGYEVHGIVRRSSSFNTGRIEHLYKNPQAHIEGNMKLHYGDLTDSTCLVKIINEVKPTEIYNLGAQSHVKISFDLAEYTADVDGVGTLRLLDAVKTCGLINSVKFYQASTSELYGKVQEIPQKETTPFYPRSPYGAAKLYAYWIVVNFREAYNLFAVNGILFNHESPRRGANFVTRKISRSVAKIYLGQLECFSLGNLDAKRDWGHAKDYVEAMWLMLQNDEPEDFVIATGEVHSVREFVEKSFLHIGKTIVWEGKNENEVGRCKETGKVHVTVDLKYYRPTEVDFLQGDCTKAKQKLNWKPRVAFDELVREMVHADVELMRTNPNA
MTTAHISGDWRTRYQHVTSFYFKTNHKVWCKVILSLLHTHIPMIIFIDMKGVNMDLIIQTFPLDGKTLYYVQCPVCKNNRILNSGANVSRIISDDTFRKLCGCTCDVKPATSKVEAPKQVKKAAVKKEAAPKRTGKVLTAVINGKEMTVKEIAEAYDISTSTVRQRINAGKPESEIIAPTKKK
MGHHHHHHSHMMEGLDDGPDFLSEEDRGLKAINVDLQSDAALQVDISDALSERDKVKFTVHTKSSLPNFKQNEFSVVRQHEEFIWLHDSFVENEDYAGYIIPPAPPRPDFDASREKLQKLGEGEGSMTKEEFTKMKQELEAEYLAIFKKTVAMHEVFLCRVAAHPILRRDLNFHVFLEYNQDLSVRGK
DIQALALLEILDPIREGAAETLDYLRSQEVGLKIISGDNPVTVSSIAQKAGFADYHSYVDCSKITDEELMAMAEETAIFGRVSPHQKKLIIQTLKKAGHTTAMTGDGVNDILALREADCSIVMAEGDPATRQIANLVLLNSDFNDVPE
MVNTNLEELRTQVDQLNIDLLELISKRANLVQEIGKIKGTQGSLRFDPLREREMLNTILAANEGPFEDSTVQKLFKEIFKAGLELQEEDHSKALLVSRKNKKEDTIVTVKGLPIGNGEPVFVFGPCSVESYEQVAAVAESIKAKGLKLIRGGAFKPRTSPYDFQGLGLEGLKILKRVSDEYGLGVISEIVTPADIEVALDYVDVIQIGARNMQNFELLKAAGRVDKPILLKRGLSATIEEFIGAAEYIMSQGNGKIILCERGIRTYEKATRNTLDISAVPILKKETHLPVMVDVTHSTGRKDLLLPCAKAALAIEADGVMAEVHPDPAVALSDSAQQMDIPEFEEFWNAILASNLVPHKIK

Soluble on expression in E. coli, soluble:
MSRYNWNVPILEVLKEAVMVKKLNKIAVVGTPCVINAVYQMMATNNDLVEPFKKAIRLKISLFCFETFDYDKMLKKLKEVEVNPWDIKKMEIDKGKLIVSTIHGNVFNFKIDEMDEYVRKGCKVCRDFTGISSDISVGNVGTPEGYSTVLVRNKWGKGFFDRAVINGYVSVEGEASIDPVISLSKKKMERKDIEFLEHHHHHH
MARKKQFDYFGELNQLATNAYEAAKVLQEIVDNYSLENLVKKSEAIHQLEKENDEIVRKILNELYISFITPIDREDIVDITDHLDNIIDSINSLSYLLDHLVVEEMIAPALELTAYIVKATEGVKSATKEFAKFKNSKTLVSLIDEVNTIESQGDKLYSSAMKDLMTNEKDLLKVIKWKDVYDQLERTINDCESAVNIIVGIVIKNTLEHHHHHH
MDSEQINVNLDIGAKAVMLARRAAAAKLNNEKLPEVPDDPIFHEKHGVFTTINTYPDNQLRGCIGFPEPYYELGEGIIKSSIYAATDDPRFDPMEPDELNRVTFELSILTVPQEVTVNPEERPKAITVGKDGIIAVYNGASGLLLPQVATEYRMSAEEFLEALCEKAGLWQGCWKYKKVKISKFQAIVFGEIEPNGKVEQRAAALEHHHHHH
ADTPGEATPPPRKKKDIRDYNDADMARLLEQWEKDDDIEEGDLPEHKRPSAPIDFSKLDPGKPESILKMTKKGKTLMMFVTVSGNPTEKETEEITSLWQGSLFNANYDVQRFIVGSDRAIFMLRDGSYAWEIKDFLVSQDRCAEVTLEGQMYPGKGGGSKEKNKTKPEKAKKKEGDPKPRASKEDNRAGSRREDL
MLAGLGEGGRVYIADLAIGPVALRDDGSIEEYELFPRSVDEAVTEALRLEEEGFTLAHEKLGKKLVESGVGSLVVESEDTARHFSKLGLSVKVEPGNNVALSARERLVSLGVELGFFGSEDDALSWLYEVEVEYTRRKLRGAAQKRDMLAAQAIRAIDDIDKTVNLFVARLREWYSIHFPELNDLVREHEDYVKIVSAVGHRDNITVERLVDLGFSEEKARRIAEAAKQSIGADLSEIDIQAVQTLARITSELYQLRRRLTEYIEQVMNEVAPNITALVGPLLGARLISLAGGLDKLARMPASTIQVLGAEKALFRALRTGGKPPKHGIIFQYPDIHRSPKWQRGKIARALAAKLAIAAKVDAFTGRFIGDKLREELRRRIAEIKKIYAKPPKRKREEKPPQPRRARPPRRGRPPRRRRGGRRLEHHHHHH
AGIKVFGHPASIATRRVLIALHEKNLDFELVHVELKDGEHKKEPFLSRNPFGQVPAFEDGDLKLFESRAITQYIAHRYENQGTNLLQTDSKNISQYAIMAIGMQVEDHQFDPVASKLAFEQIFKSIYGLTTDEAVVAEEEAKLAKVLDVYEARLKEFKYLAGETFTLTDLHHIPAIQYLLGTPTKKLFTERPRVNEWVAEITKRPASEKVQ
SAEGDYYTLGNRQRIPRDPFREQSLASRFMDDDFGLPPFPNELSMDWPGWARPRLSHRLDAPWTGSLRSGFPRASMSSPQGFSSVYTESPRRASAPPTDSDEPWKVCVNVHSFKPEELNVKTKDGFVEVSGKHEEKQDEGGIVTKNFTKKIQIPLDVDPVTVFASLSPEGVLIIEARQTPPYYLYSNEMPAESMEEPEARPQEPSMTSTTTFEARE
MSLKQFKSIINTSQDFEKRIEKIKKEVINDPDVKQFLEAHRAELTNAMIDEDLNVLQEYKDQQKHYDGHKFADCPNFVKGHVPELYVDNNRIKIRYLQCPCKIKYDEERFEAELITSHHMQRDTLNAKLKDIYMNHRDRLDVAMAADDICTAITNGEQVKGLYLYGPFGTGKSFILGAIANQLKSKKVRSTIIYLPEFIRTLKGGFKDGSFEKKLHRVREANILMLDDIGAEEVTPWVRDEVIGPLLHYRMVHELPTFFSSNFDYSELEHHLAMTRDGEEKTKAARIIERVKSLSTPYFLSGENFRNNEGHHHHHH
VDWTDAERSAIVGLWGKISVDEIGPQALARLLIVSPWTQRHFSTFGNLSTPAAIMGNPAVAKHGKTVMHGLDRAVQNLDDIKNTYATLSVMHSEKLHVDPDNFRLLADCITVCVAAKLGPAVFSADTQEAFQKFLAVVVSALGRQYH
